According to a protein production outcome set (Wang et al. 2014):

Experiment: label from the status in PepcDB records
In the case of “MTNLFLGFLVISFCLLGNLIHAADGSIHDYNNSGGFTKIANARYFVGGSEGIYGSEFLDVHHASSDTPLLKGNSFIRFDDITFVRTKESASKQNSTLAAAGLVEAILFEVKQRDRVGGSFFKSEDMCCTPKLADAGSCNLGEVMISADPNDPEWPKRIPTFFKRGEEEVKMSPEAVIIKKTGLYTVYFMTCDPELDGATIRGRTVWKNRGGYLQGEKAPLKKFYASMLLAYVVLGLVWFPQVAQYWKDGIQLHSHINFVIAFTMGELAFLYLDFVYLDSAGTSPMEVTVWAITLSSMRKALSRLLLLVISSGFGIVRPTLGGITLKMLLIGVLCFVISESLGLAMQFGNISENGMNYLMLSWAILETCFIQWIFRSLSKTLKKLKLNKRNITKLQLYKMFATVLVIMVVLSFAWIYVEVYLYSSLSQFWKVKWIVPTLWYILSYAMLVLICLFWPPSEKPMRYLYVADMEEETEEEDDLSTAETGMNATKAEYERSERKTLLEAFILLLGNIPGEK”, the protein production is reported as “failed”.
In the case of “MTNMRQVLKTDRLVLEPQSMARFDQWFAMERQRDEAGHRDLTEDQAWLRLCARQGMWDAYACGFYYLLDPVSGEMRGEAGFQFRRRGFGPGFDNHPEAAWAVASAHQGRGLAAEAMQALLAHHDRSSGRQRVVALIARSNLPSLRLAERLGFRGYSDVAFDGAAHLLLERAG”, the protein production is reported as “not failed”.
In the case of “MTNNAKKEPQQRGKHQVHNVRFYTIKPREIVSLAYSKSSKCLALSRATPVIELWNLEHAPYLDRVIHLPTDSHVESIAWAGNRLFSVDLSGKLIEWDVIKLKQRYEHSPTGNALWSIDVNPAETDIAIGSEEGHINILSIENDEITYKSLFNKQKGRVLCIKFDKTGTKLVTGTEGFVRIWNVLKGTTLHTMTLSEKNVIVWSLQVLSDNTIIAGDSAGFVTVWDADNATQIDSTRVLDKNVFALAVNNKEDRLVCSGMQPPLIRIFSKTKIKREESTSERWIKFLQRDAHKHYVKSLLVIDDQIYSGGRDGILTITSSERMQAHLSQHAPFLKGSVASMAISKKLLLLRYPNSVHLWRLGSVAPQGEDKKKPWALPVGHTEEQLLELPPQKLLQLNVKEHNFIQSAAISSDANWICYSTLKELRISRLKSDPLQVERLVDDLPEELQPASHIIFTKQGDLVLLNPQNNHLSWFTLEEDLVTFKYTIDLSEKCKNTISHVVISSHGEYIVAASSDHIISVWKLHGKQYKHLLNLPRHRAGTTALSMHEDYPRVVVAYANGQLVEYDLVNRIFTCETNEYLIPETRRHCINGISLDPQNRNIFIVHTEGNLYVLERDQHLDPKELVSNSKSKKLSNGNRSSVDGGSKGLSLKTTLSRQHLVHVSRLSPNELVNVSISTNNLLAPLPPPYQRKKFGAS”, the protein production is reported as “failed”.
With “MTNTHEINALKKYVRATNFLATSQIYLKQNVLHKRPLAHSDIKPRLLGHWGTCPGINFVYANINRLIVKHNRPFIYLVGPGHGFPAVQANLFIEGSLSHFYPETIPYNETGIEDICKKFSAAYGYPSHANPEAPGQILEGGELGYSLSVGWGAVLDNPDLIATVLVGDGESETGPLAASWYANRLVSPATNGAVLPIVHINGYKISGPTRMGRMSHEELDLEFRGLGYHPIIVDSEAEEDVYIQMATAMDTAYSMINDIQTRARKGEDIVK” the protein production was “failed”.
For “MTPASAVPAHPCPPGPNALRRRLLQAALSTGVLASIGTAAPAAASAHATSTPSKPMDLYAYVGSRTTRERNARGDGISVFRVDTQTGGLAPVQLVKDLVNPSFLALNPAGDRLYTVHGDLADISAFAVDRASGRLSFINRQSTQGKNPVHLALDPSGRFVVVTNHIGASLAVLPLAADGALGEVTQLVKLDGPIGPHRIEQKQAKPHFNRFDPAGRFVIVPDKGLDRTFAFRFAEGRLTPATPSFVSAREGAGPRHVAFRPDGRVAYVVNELDSTVTTYGYDAGTATLTPLQVLPSLPDTFTGNSRASEIKVDAAGRFVYASNRGHDSIAVFRIDAASGLLRFVAAEPSLGRTPRFFTIAPGGRFLYALNEDSDSIVAFAIDPHTGRLHPTGTRAQSGSPVCMVFSTPAA”, the protein production was “failed”.
In the case of “MTPDDFDRFWPTFQAIVQARETYAFDPALSFEQARQLWLELPLHTLLAEEDGELLGSYYLKPNAAGPGAHVGNCGYMVCEQARGRGVARLMCEHSQKLARQEGFLALQFNSVVASNEVAVALWHKLGFETVGRLPKAYRHARLGLVDCLVMYKWLAD”, the protein production is reported as “failed”.
For “MTPEQLMSLRATFRSPRRLLTESLAGLVVALALIPEAIAFSVIAGVDPRIGLFASFTMGVVTAIVGGRPAMISAATGAVALVIAPVMKEHGLDYLIATIILAGVFQIILAVLGVTKLMRFIPRSVMIGFVNALAILVFMSQMPELFDVPWMVYPIVVVGLVIVFGLPRITTAIPAPLVAIVAITLVTVLGNVDVPTVSDKGELPDSLPGFFLPNVPLNLETFQIIAPFALSMALVGLLESLMTAKLVDDITDTRSNKTRVSWGQGAANIVTGFLGGLGGCAVIGQTMINVKGSGARSRLSTFLAGVFLLILVVVLGDVVGMIPMAALVAVMIFVSLITFDWHSIRPSTLKRLPKSETAVMLITVAAVVATHNLAVGVGVGVVTAMVLFARRVAHFATVERTELELNGERVATYTVDGELFFASSNDLYTQFDYAKDSSDGIDRVIIDLHGSHIWDASTVAVLDSVTEKYRNHGREVEFIGLNEASVRMRERLAGKLNS”, the protein production was “failed”.
In the case of “MTPFENLSELPAQNTRFNGRAGMGTWLVNRLLNNIERGRLRVTLPGGGTIEKSGHQEGSEAILMLHNWRAIRRVLVNGDIGFAEGFIENDWSTPDLTALIRFAAQNQDAFARSTRGSLPMRLINRMAHALNANTRRGSRRNIEAHYDLGNEFYRQWLDPSMLYSSAIFDDTTPTLEAAQRKKLERIAEKLQLTGNNSVLEIGCGWGALAIHLATQQNADVTGITLSPSQLRWAENAAEKESKAGRIDLRLQDYRDVQGQFDNIVSVEMFEAVGESYWPSYFEMLKRCLKPGGRAVLQIISIDESRFDTYRRKADFIQKYVFPGGFLPSDSALEKSVGQAGLKLTETELFGQSYALTLAEWRQRFHARWQTISLLGFDERFRRLWDYYLCYCEAGFAEGTINVGLYTIEHG”, the protein production is reported as “failed”.
With “MTPLVSRLSRLWAIMRKPRAAVGSGHRKQAASQEGRQKHAKNNSQAKPSACDGLARQPEEVVLQASVSSYHLFRDVAEVTAFRGSLLSWYDQEKRDLPWRRRAEDEMDLDRRAYAVWVSEVMLQQTQVATVINYYTGWMQKWPTLQDLASASLEEVNQLWAGLGYYSRGRRLQEGARKVVEELGGHMPRTAETLQQLLPGVGRYTAGAIASIAFGQATGVVDGNVARVLCRVRAIGADPSSTLVSQQLWGLAQQLVDPARPGDFNQAAMELGATVCTPQRPLCSQCPVESLCRARQRVEQEQLLASGSLSGSPDVEECAPNTGQCHLCLPPSEPWDQTLGVVNFPRKASRKPPREESSATCVLEQPGALGAQILLVQRPNSGLLAGLWEFPSVTWEPSEQLQRKALLQELQRWAGPLPATHLRHLGEVVHTFSHIKLTYQVYGLALEGQTPVTTVPPGARWLTQEEFHTAAVSTAMKKVFRVYQGQQPGTCMGSKRSQVSSPCSRKKPRMGQQVLDNFFRSHISTDAHSLNSAAQ” the protein production was “failed”.
In the case of “MTPMPSSVKPVEGRSVLIEWQDGHSSLYENVYLREHCQCAECVHEWTGEKLISRERIPADIRPVSVSAVGNYALSIRFSDGHGTGVYSYELLRKICPCPLCKA”, the protein production is reported as “failed”.
In the case of “MTPNEDLIEIFEDEEISPSLTAKTWPILIVDDDQDVHDVSRLALRGVRLLDYDLETLHAYSAAQARAILSSRSDIAVALLDVVMEREDAGLDLVRWIRSDPARDLLRIVLRTGQPGYAPEATVIQDYDINDYRTKSELNRGRLISILTTALRSYRQMAVIAASRDGLDKIVRASADLLASPSMAIFAEGVLTQLAGLLGTERSGIVLARRNRRPGATASMAMTGDEGFVLAAAGPLSADIGRPLSDIGDHQTAEILRRTLESRRSSFDHGSMALYIATPNGDSLAVLMEVAKTLGDTDRKLVEVFCVNMAAGFDTISLFEQISLQAFHDEATGLPNLAACQSLIDQYLQRRQPVAVTFFSLEGFSAISDTLGRVIGDRMIGLLANAFRHRLQERGEVFRVGQETLATVIGGPVDQVGPLADQLAGDFRAGLPLDSMTLPVSFSHGTSVSTSEHDTAQILVQRAGIAMQKARNIKRGGGLTYAVAMEEEIRAHIGVISKLGAGVVSEAFVAVFQPKIRLADRSCHGGEALVRWRDGDGTMIAPSLFIPAAETSGHIVDIGYSVFRQSCAMIRSLKVSQDDARIAVNLSVRQMREPDLIDKLVSIAAEEGVATTRLKLEITESIVIDDLTHTVSLLKALKDKGFLLALDDFGTGYSSLSYLRSLPIDTLKIDRSFVSGLAEQADMRKIVGLIIGLGHELGFDITAEGVETEEEARIVTEMGCFTAQGYLFSKPLSAEDFLVFARTHAGARQTSGGSLSAEGCIRARDA”, the protein production is reported as “failed”.
For “MTPQNTIARELLFLALLSTLWAASYTFIKIGVETIPPLTFIAARTLIAGLLLLVVIRLRGLRLPRDPATWRLFFVQACINSVLPFTLIAWAEQSIDAGLAVILNATTPIFTFLLTALVIRHETVSGRKLFGTIAGMTGVCLIIGVEALGGAGEAIWSQLAVLTAAFSYACAAIFSKNFKGLDPVMPAAGSLICGAVLLLPVSLIVDRPWTLSPSAASLTALVCLSVFSTALAFMIYFRLMQTLGSVGTTSQAYLRVPVGVAIGMVFLGEVPTSAMWVGLVCVIAGVLAMTLPSRRRPATQGG”, the protein production was “failed”.
In the case of “MTPQRATLTGMLAIILWSTSVGLIRSLTEALGPIGGAAMIYSTSTLCLLVFYGLPRIKTLPRIYLFAGGALFVCYEIFLSLSIGLADSRMQAMEIGMINYLWPSLTILFSLFINQQKSRFLLWPGLVISLGGIVWIMKGESDWTPELLWNNILANPLAYSLAFSAALTWALYCNITKRYGQGKSGVSLFFFIASLVLWIQYSFSAEGPISLTLPSSLELLFMGASAALAYSAWNAGIQYGNLTLLATASYFTPVLSTLLAAIWLNITPAISFWQGVAMVTAGSLLCWYATRSSTR”, the protein production is reported as “failed”.
For “MTPSLSGLPPIRTALIGYGFAGKTFHAPLIRAVPALCLEHVVSRDPGRVHADLPEARVSADPDEAIEAADIDLVVIASPNATHASLAERALRAGKHVVVDKPFTVTLAEARRLADLARERPGQVLSVFQNRRFDSDFLAVEAALQAGSIGPVRYFESAIERFRPQVRDRWREHDLPGSGLWFDLGPHLLDQALCLFGVPQRVHGHLRRLREGALTDDWFEVLLDYPHCQVALRASMLAANPAPRFNVHGDHGSLLKAGADIQEAQLLQGLHPGSAGWGRDPDLLQHIDGQGLRQSLVTPAGDQSRYYQALAAAIRGQSRNPVSAQQACALMALLELARRSAEEGRSLPVELRDEERQAWN”, the protein production was “failed”.
In the case of “MTPTPSFAAYVGAHWAAVVIYVIATVVNVYGLLFRSEPAERWSYRLISVGWMIHSVVIAYWWWVTGHGPYLSRNEVLSSDAWIALTVFMCFQRLYPRVRPASIVVFPSVFLMIALGLFFDVQIRTLPPTFSGIWLVIHIAFYKIALGTILIALACSIFLVLKKRTPFAWLQRLPDLESLDLHAYRFAGFGFIIWAIAMLAGSIWAYKSWGRFWGWDPVENWSLITWILFGIHLHLRRFFRWSGERAALFYVVCFIFSLVALFYTSHMDTSIHMEYFR”, the protein production is reported as “failed”.
For “MTPYRRILLIMTEAQANAALSRAMALSAASGASLHVLGIHESGVLRLPHELQEAPLHSASFMHFSTELKALLDEQSFVGARPGFEAVETSNPRDQLPACIARYAPDLVIKGCPGHSLLEQIARTSLDQALLH”, the protein production was “failed”.
In the case of “MTQDEWIDIPQGWSQGRTIYGGLVAGLLMHKALSVMNDESKNLLSTSITFVGPVNEGRVRLTVEILRQGKSVTTIEARLWQDQAVQTILIASFGQPRSLEHHHHHH”, the protein production is reported as “not failed”.
With “MTQELQTLEVEEEMMMRKFYELMSRQRLNKKMIMLVLIEIDVGSFEENGEDSKCVTWTERHKPLKGNNAAGVLPLQRLVRDGLLAYGPEVF” the protein production was “failed”.
For “MTQKEWPLWEVFVRSKQGLEHKHCGSLHATDAQQALHMARDVYTRRQEGVSIWVVPSTAITASAPEEKPELFDPMADKIYRHPTFYQLPDEVNHM”, the protein production was “not failed”.
